{
  "source": "patent US20200240995A1",
  "about": "“KDAC VARIANTS AND USES THEREOF” (Max-Planck-Gesellschaft Zur Forderung Der Wissenschaften …, priority 2017, published 2020)",
  "molecules": {"B1": {"name": "Debocylase-1: E. coli CobB mutant I131V V148L (protein)", "chain": "KPRVLVLTGAGISAESGIRTFRAADGLWEEHRVEDVATPEGFDRDPELVQAFYNARRRQLQQPEIQPNAAHLALAKLQDALGDRFLLVTQNVDNLHERAGNTNVIHMHGELLKVRCSQSGQVLDWTGDVTPEDKCHCCQFPAPLRPHLVWFGEMPLGMDEIYMALSMADIFIAIGTSGHVYPAAGFVHEAKLHGAHTVELNLEPSQVGNEFAEKYYGPASQVVPEFVEKLLKGLKAGSIA", "modifications": "Debocylase-1", "notes": "E. coli CobB mutant I131V V148L"}, "B2": {"name": "Dealocase-2: E. coli CobB mutant A37G R56G I92V (protein)", "chain": "KPRVLVLTGAGISAESGIRTFRAADGLWEEHRVEDVGTPEGFDRDPELVQAFYNAGRRQLQQPEIQPNAAHLALAKLQDALGDRFLLVTQNVDNLHERAGNTNVIHMHGELLKVRCSQSGQVLDWTGDVTPEDKCHCCQFPAPLRPHVVWFGEMPLGMDEIYMALSMADIFIAIGTSGHVYPAAGFVHEAKLHGAHTVELNLEPSQVGNEFAEKYYGPASQVVPEFVEKLLKGLKAGSIA", "modifications": "Dealocase-2", "notes": "E. coli CobB mutant A37G R56G I92V"}, "B3": {"name": "Dealocase-3: E. coli CobB mutant I131S V148L (protein)", "chain": "KPRVLVLTGAGISAESGIRTFRAADGLWEEHRVEDVATPEGFDRDPELVQAFYNARRRQLQQPEIQPNAAHLALAKLQDALGDRFLLVTQNSDNLHERAGNTNVIHMHGELLKVRCSQSGQVLDWTGDVTPEDKCHCCQFPAPLRPHLVWFGEMPLGMDEIYMALSMADIFIAIGTSGHVYPAAGFVHEAKLHGAHTVELNLEPSQVGNEFAEKYYGPASQVVPEFVEKLLKGLKAGSIA", "modifications": "Dealocase-3", "notes": "E. coli CobB mutant I131S V148L"}, "B4": {"name": "Decrotonylase-1: E. coli CobB mutant A37R Y53G R56T I92R V148L (protein)", "chain": "KPRVLVLTGAGISAESGIRTFRAADGLWEEHRVEDVRTPEGFDRDPELVQAFGNATRRQLQQPEIQPNAAHLALAKLQDALGDRFLLVTQNRDNLHERAGNTNVIHMHGELLKVRCSQSGQVLDWTGDVTPEDKCHCCQFPAPLRPHLVWFGEMPLGMDEIYMALSMADIFIAIGTSGHVYPAAGFVHEAKLHGAHTVELNLEPSQVGNEFAEKYYGPASQVVPEFVEKLLKGLKAGSIA", "modifications": "Decrotonylase-1", "notes": "E. coli CobB mutant A37R Y53G R56T I92R V148L"}, "B5": {"name": "Dealocase-1: E. coli CobB mutant A37S Y53W R56W I92V (protein)", "chain": "KPRVLVLTGAGISAESGIRTFRAADGLWEEHRVEDVSTPEGFDRDPELVQAFWNAWRRQLQQPEIQPNAAHLALAKLQDALGDRFLLVTQNVDNLHERAGNTNVIHMHGELLKVRCSQSGQVLDWTGDVTPEDKCHCCQFPAPLRPHVVWFGEMPLGMDEIYMALSMADIFIAIGTSGHVYPAAGFVHEAKLHGAHTVELNLEPSQVGNEFAEKYYGPASQVVPEFVEKLLKGLKAGSIA", "modifications": "Dealocase-1", "notes": "E. coli CobB mutant A37S Y53W R56W I92V"}},
  "test_system": "Firefly luciferase modified at K529",
  "experiment": "Dual luciferase reporter (DLR) assay in E. coli whole cell lysates",
  "format": "cell-based",
  "conditions": "normalized to Renilla luciferase, relative to wild-type CobB; for DLR activity [rel. to wild-type], AcK: AcK at K529; for DLR activity [rel. to wild-type], AlocK: AlocK at K529; for DLR activity [rel. to wild-type], BocK: BocK at K529; for DLR activity [rel. to wild-type], CrK: CrK at K529",
  "procedure": "FIG. 3: Evolved CobB variants can activate Firefly luciferase modified at K529. Dual luciferase reporter (DLR) assays were performed with E. coli producing DLR with the indicated modification of K529 in the Firefly enzyme. Activities were normalized to genetically fused Renilla luciferase and plotted relative to the activity observed for wild-type CobB on the same substrate. A) CobB mutant able to discriminate crotonyl-over acetyl-lysine. B) CobB mutants active against protected forms of lysine.\nThe mutants isolated in the selections were tested using Firefly dual luciferase assays. E. coli DH10B ΔpyrF ΔcobB were transformed with plasmids expressing Firefly luciferase with the relevant modification on lysine-529 and the cobB mutants. Luciferase activity was tested directly in whole cell lysates and compared to the activity of wild-type cobB towards the modifications. The activities observed for the evolved KDAC variants correlated well with the activities observed in the uracil selections (FIG. 3).",
  "data": [
    {"molecule": "B1", "values": [
      {"measurement": "DLR activity [rel. to wild-type], AcK", "value": "1.25 rel. to wild-type"},
      {"measurement": "DLR activity [rel. to wild-type], AlocK", "value": "8.35 rel. to wild-type"},
      {"measurement": "DLR activity [rel. to wild-type], BocK", "value": "8.65 rel. to wild-type"},
      {"measurement": "DLR activity [rel. to wild-type], CrK", "value": "2.90 rel. to wild-type"}
    ]},
    {"molecule": "B2", "values": [
      {"measurement": "DLR activity [rel. to wild-type], AcK", "value": "1.19 rel. to wild-type"},
      {"measurement": "DLR activity [rel. to wild-type], AlocK", "value": "10.23 rel. to wild-type"},
      {"measurement": "DLR activity [rel. to wild-type], BocK", "value": "0.77 rel. to wild-type"},
      {"measurement": "DLR activity [rel. to wild-type], CrK", "value": "2.11 rel. to wild-type"}
    ]},
    {"molecule": "B3", "values": [
      {"measurement": "DLR activity [rel. to wild-type], AcK", "value": "0.35 rel. to wild-type"},
      {"measurement": "DLR activity [rel. to wild-type], AlocK", "value": "6.00 rel. to wild-type"},
      {"measurement": "DLR activity [rel. to wild-type], BocK", "value": "0.65 rel. to wild-type"},
      {"measurement": "DLR activity [rel. to wild-type], CrK", "value": "1.00 rel. to wild-type"}
    ]},
    {"molecule": "B4", "values": [
      {"measurement": "DLR activity [rel. to wild-type], AcK", "value": "0.00 rel. to wild-type"},
      {"measurement": "DLR activity [rel. to wild-type], AlocK", "value": "0.02 rel. to wild-type"},
      {"measurement": "DLR activity [rel. to wild-type], BocK", "value": "0.04 rel. to wild-type"},
      {"measurement": "DLR activity [rel. to wild-type], CrK", "value": "0.10 rel. to wild-type"}
    ]},
    {"molecule": "B5", "values": [
      {"measurement": "DLR activity [rel. to wild-type], AcK", "value": "0.49 rel. to wild-type"},
      {"measurement": "DLR activity [rel. to wild-type], AlocK", "value": "10.83 rel. to wild-type"},
      {"measurement": "DLR activity [rel. to wild-type], BocK", "value": "2.88 rel. to wild-type"},
      {"measurement": "DLR activity [rel. to wild-type], CrK", "value": "5.73 rel. to wild-type"}
    ]}
  ]
}
